# Laboratory results from US20110118131A1 (published 2011).
# Where a chain is given by its changes, count along the chain named. Names may count otherwise.
# B1: XPA23 Fab, heavy chain F35D (Fab, V domains shown)
# VH: EVQLLESGGGLVQPGGSLRLSCAASGFTFSKYFMDWVRQAPGKGLEWVSVISPSGGMTRYADSVKGRFTISRDNSKNTLYLQMNSLRAEDTAVYYCARVGYGGNSDYWGQGTLVTVSS
# VL: DIQMTQSPSSVSASVGDRLTIICRASQDINRWLAWYQQTPGNAPKLLIHSATSLQSGVPSRFSGSGSGTDFTLTINSLQPEDFATYYCQQADSFPLTFGGGTKVEIK
# B2: XPA23 Fab, heavy chain G56K (Fab, V domains shown)
# VH: B1 VH with D35F, G56K
# VL: B1 VL
# B3: XPA23 Fab, heavy chain G56E (Fab, V domains shown)
# VH: B1 VH with D35F, G56E
# VL: B1 VL
# B4: XPA23 Fab, heavy chain G100W (Fab, V domains shown)
# VH: B1 VH with D35F, G100W
# VL: B1 VL
# B5: XPA23 Fab, heavy chain G100F (Fab, V domains shown)
# VH: B1 VH with D35F, G100F
# VL: B1 VL
# B6: XPA23 Fab, heavy chain G100D (Fab, V domains shown)
# VH: B1 VH with D35F, G100D
# VL: B1 VL
# B7: XPA23 Fab, heavy chain F35S (Fab, V domains shown)
# VH: B1 VH with D35S
# VL: B1 VL
# B8: XPA23 Fab, heavy chain G102H (Fab, V domains shown)
# VH: B1 VH with D35F, G102H
# VL: B1 VL
# B9: XPA23 Fab, heavy chain G55Q (Fab, V domains shown)
# VH: B1 VH with D35F, G55Q
# VL: B1 VL
# B10: XPA23 Fab, heavy chain G100K (Fab, V domains shown)
# VH: B1 VH with D35F, G100K
# VL: B1 VL
# B11: XPA23 Fab, heavy chain F35E (Fab, V domains shown)
# VH: B1 VH with D35E
# VL: B1 VL
# B12: XPA23 Fab, heavy chain F35H (Fab, V domains shown)
# VH: B1 VH with D35H
# VL: B1 VL
# B13: XPA23 Fab, heavy chain G55S (Fab, V domains shown)
# VH: B1 VH with D35F, G55S
# VL: B1 VL
# B14: XPA23 Fab, heavy chain F35N (Fab, V domains shown)
# VH: B1 VH with D35N
# VL: B1 VL
# B15: XPA23 Fab, heavy chain G56W (Fab, V domains shown)
# VH: B1 VH with D35F, G56W
# VL: B1 VL
# B16: XPA23 Fab, heavy chain G56R (Fab, V domains shown)
# VH: B1 VH with D35F, G56R
# VL: B1 VL
# B17: XPA23 Fab, heavy chain G102Q (Fab, V domains shown)
# VH: B1 VH with D35F, G102Q
# VL: B1 VL
# B18: XPA23 Fab, heavy chain F35Y (Fab, V domains shown)
# VH: B1 VH with D35Y
# VL: B1 VL
# B19: XPA23 Fab, heavy chain G100Y (Fab, V domains shown)
# VH: B1 VH with D35F, G100Y
# VL: B1 VL
# B20: XPA23 Fab, heavy chain G55R (Fab, V domains shown)
# VH: B1 VH with D35F, G55R
# VL: B1 VL
# B21: XPA23 Fab, heavy chain G100Q (Fab, V domains shown)
# VH: B1 VH with D35F, G100Q
# VL: B1 VL
# B22: XPA23 Fab, heavy chain G102E (Fab, V domains shown)
# VH: B1 VH with D35F, G102E
# VL: B1 VL
# B23: XPA23 Fab, heavy chain G56D (Fab, V domains shown)
# VH: B1 VH with D35F, G56D
# VL: B1 VL
# B24: XPA23 Fab, heavy chain G55E (Fab, V domains shown)
# VH: B1 VH with D35F, G55E
# VL: B1 VL
# B25: XPA23 Fab, heavy chain G55Y (Fab, V domains shown)
# VH: B1 VH with D35F, G55Y
# VL: B1 VL
# B26: XPA23 Fab, heavy chain G56F (Fab, V domains shown)
# VH: B1 VH with D35F, G56F
# VL: B1 VL
# B27: XPA23 Fab, heavy chain G100R (Fab, V domains shown)
# VH: B1 VH with D35F, G100R
# VL: B1 VL
# B28: XPA23 Fab, heavy chain G55D (Fab, V domains shown)
# VH: B1 VH with D35F, G55D
# VL: B1 VL
# B29: XPA23 Fab, heavy chain G55K (Fab, V domains shown)
# VH: B1 VH with D35F, G55K
# VL: B1 VL
# B30: XPA23 Fab, heavy chain G55N (Fab, V domains shown)
# VH: B1 VH with D35F, G55N
# VL: B1 VL
# B31: XPA23 Fab, heavy chain G102K (Fab, V domains shown)
# VH: B1 VH with D35F, G102K
# VL: B1 VL
# B32: XPA23 Fab, heavy chain G100S (Fab, V domains shown)
# VH: B1 VH with D35F, G100S
# VL: B1 VL
# B33: XPA23 Fab, heavy chain F35W (Fab, V domains shown)
# VH: B1 VH with D35W
# VL: B1 VL
# B34: XPA23 Fab, heavy chain G102R (Fab, V domains shown)
# VH: B1 VH with D35F, G102R
# VL: B1 VL
# B35: XPA23 Fab, heavy chain F35Q (Fab, V domains shown)
# VH: B1 VH with D35Q
# VL: B1 VL
# B36: XPA23 Fab, heavy chain G56N (Fab, V domains shown)
# VH: B1 VH with D35F, G56N
# VL: B1 VL
# B37: XPA23 Fab, heavy chain G100H (Fab, V domains shown)
# VH: B1 VH with D35F, G100H
# VL: B1 VL
# B38: XPA23 Fab, heavy chain G56Q (Fab, V domains shown)
# VH: B1 VH with D35F, G56Q
# VL: B1 VL
# B39: XPA23 Fab, heavy chain G56H (Fab, V domains shown)
# VH: B1 VH with D35F, G56H
# VL: B1 VL
# B40: XPA23 Fab, heavy chain F35R (Fab, V domains shown)
# VH: B1 VH with D35R
# VL: B1 VL
# B41: XPA23 Fab, heavy chain F35K (Fab, V domains shown)
# VH: B1 VH with D35K
# VL: B1 VL
# B42: XPA23 Fab, heavy chain G102N (Fab, V domains shown)
# VH: B1 VH with D35F, G102N
# VL: B1 VL
# B43: XPA23 Fab, heavy chain G56Y (Fab, V domains shown)
# VH: B1 VH with D35F, G56Y
# VL: B1 VL
# Target: T1, IL-1beta (UniProt P01584 117-269)
# T1 construct: also called IL-1β
# Experiment: Biacore
binder,measurement,value
B1,fold difference in affinity vs parental,0.06 fold
B2,fold difference in affinity vs parental,2.05 fold
B3,fold difference in affinity vs parental,1.21 fold
B4,fold difference in affinity vs parental,0.05 fold
B5,binding result,no binding
B6,binding result,no binding
B7,fold difference in affinity vs parental,0.09 fold
B8,binding result,no binding
B9,fold difference in affinity vs parental,0.9 fold
B10,binding result,no binding
B11,binding result,no binding
B12,binding result,no binding
B13,fold difference in affinity vs parental,1.02 fold
B14,fold difference in affinity vs parental,0.86 fold
B15,fold difference in affinity vs parental,1.51 fold
B16,fold difference in affinity vs parental,2.11 fold
B17,binding result,no binding
B18,fold difference in affinity vs parental,0.85 fold
B19,fold difference in affinity vs parental,0.09 fold
B20,fold difference in affinity vs parental,0.95 fold
B21,binding result,no binding
B22,binding result,no binding
B23,fold difference in affinity vs parental,0.05 fold
B24,fold difference in affinity vs parental,0.11 fold
B25,fold difference in affinity vs parental,0.08 fold
B26,fold difference in affinity vs parental,1.41 fold
B27,binding result,no binding
B28,binding result,no binding
B29,fold difference in affinity vs parental,0.11 fold
B30,fold difference in affinity vs parental,0.1 fold
B31,binding result,no binding
B32,fold difference in affinity vs parental,2.8 fold
B33,binding result,no binding
B34,binding result,no binding
B35,binding result,no binding
B36,fold difference in affinity vs parental,1.06 fold
B37,fold difference in affinity vs parental,0.06 fold
B38,fold difference in affinity vs parental,1.31 fold
B39,fold difference in affinity vs parental,0.82 fold
B40,binding result,no binding
B41,fold difference in affinity vs parental,0.68 fold
B42,fold difference in affinity vs parental,1.17 fold
B43,fold difference in affinity vs parental,1.27 fold
